By stoichiometry N is commonly meant the number of molecules, sites or subunits per partner or assembly.

Substitutions are numbered along the chain they refer to. Numbers in names are those of the source.

This note sets out measurements from publication PMC6748131, “BFL1 modulates apoptosis at the membrane level through a bifunctional and multimodal mechanism showing key differences with BCLXL” (Cell Death and Differentiation, 2018).

Data set [1] addresses T1, BFL1ΔC L21A, Q16548.
T1 chain: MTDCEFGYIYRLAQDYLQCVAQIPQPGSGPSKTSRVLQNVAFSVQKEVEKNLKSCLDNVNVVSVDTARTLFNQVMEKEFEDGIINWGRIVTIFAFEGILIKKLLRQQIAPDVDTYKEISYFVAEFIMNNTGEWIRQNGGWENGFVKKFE
The data set is described as follows: TIRF single-molecule brightness analysis. The following applies: chain shown with the change, 100% CL SLB, 0.5 nM BFL1∆Cg proteins, 1 h at room temperature, read off a plot.

In data set [2] the target is T1, BFL1ΔC L21A, Q16548. The data set is described as follows: FCCS. The following applies: chain shown with the change; 100% CL GUV; parent: est. 37; read off a plot.
In data set [3] the target is T2, BFL1ΔC R88D, Q16548.
T2 chain: T1 chain with A21L, R88D
The data set is described as follows: TIRF single-molecule brightness analysis. The conditions noted are these: chain shown with the change, 100% CL SLB, 0.5 nM BFL1∆Cg proteins, 1 h at room temperature, read off a plot.

Data set [4] has as its target T2, BFL1ΔC R88D, Q16548. The data set is described as follows: FCCS. The following applies: chain shown with the change; 100% CL GUV; parent: est. 37; read off a plot.
Data set [5] deals with the molecule itself. The data set is described as follows: single-molecule TIRF brightness analysis; BFL1ΔCg 0.5 nM incubated with LUV 1 h at room temperature, supported lipid bilayers; apoptotic-like membranes.
Data set [6] concerns the molecule itself. The data set is described as follows: SEC; protein in the presence of 100%CL LUV. In general terms: Size exclusion chromatography separates by hydrodynamic size, large species first.

B1: BFL1ΔC (BFL1 lacking the C-terminal 24 residues, helix α9), Q16548 L21A (protein)
chain: T1 chain
Consider B1, for which the other: occurrence of monomers (%) in data set [1] (parent: est. 26) turned out to be 41%. For the same molecule, the other: occurrence of dimers (%) in data set [1] (parent: est. 73) is 57%. In addition, in data set [2], the other: %CC (cross-correlation, FCCS) was found to be 22%.

B2: BFL1ΔC (BFL1 lacking the C-terminal 24 residues, helix α9), Q16548 R88D (protein)
chain: T1 chain with A21L, R88D
With B2, in data set [3] (parent: est. 26), the other: occurrence of monomers (%) stood at 27%. The other: occurrence of dimers (%) in data set [3] (parent: est. 73) stood at 71%. Further, the other: %CC (cross-correlation, FCCS) in data set [4] stood at 35%.

B3: BFL1ΔC (BFL1 lacking the C-terminal 24 residues, helix α9) (domain or fragment)
chain: T1 chain with A21L
modifications: Alexa 488 (BFL1ΔCg) or Alexa 647 (BFL1ΔCr) label in FCCS, TIRF and GUV imaging, site not stated; unlabelled in SEC
notes: BFL1 (BCL2A1) lacking the C-terminal 24 residues (helix α9, TA motif); Expressed from the vector pNIC28-Bsa4; Labelled (g, r) and unlabelled forms of the same construct are kept as one molecule; the assay's format tells which was used; also called BFL1ΔCg; BFL1ΔCr
For the molecule B3, in data set [5], the “stoichiometry N” value amounted to 2.

B4: BFL1ΔC R88D (domain or fragment)
chain: T1 chain with A21L, R88D
modifications: Alexa 488 (g) or Alexa 647 (r) label in FCCS, site not stated; unlabelled in SEC and in the GUV retrotranslocation assay
notes: Same construct as m1 with one point mutation; also called BFL1ΔCg R88D; BFL1ΔCr R88D
As to B4, the binding result in data set [6] is “binds”.
